The results in this text go back to paper PMC3215728.

Assay [1] addresses CFP-dysferlin / YFP-dysferlin (full-length human dysferlin) expressed in HEK293 cells (human) (UniProt O75923). The assay is described as follows: fluorescence correlation spectroscopy (FCS); YFP-dysferlin diffusing in detergent solution, 1% CHAPS or 0.5% DDM; single species diffusion model. The following applies: remark: other sources report otherwise.
Assay [2] shares this target. Briefly: photon counting histogram (PCH); detergent solubilized YFP-dysferlin in CHAPS or DDM; molecular brightness normalised to monomeric YFP. The following applies: remark: other sources report otherwise.
For assay [3] the target is unchanged. Briefly: FRET or BRET; three-cube fluorescence microscopy (E-FRET), pixel by pixel, CFP-dysferlin and YFP-dysferlin in living HEK293 cells. The following applies: remark: other sources report otherwise. (In general: In BRET a luciferase serves as donor, and the signal depends on an acceptor being close.)
Assay [4] shares this target. Briefly: fluorescence correlation spectroscopy (FCS); YFP-dysferlin diffusing in detergent solution, Triton X-100; 2-species fit. The note with it: remark: other sources report otherwise.
Assay [5] has the same target. The assay is described as follows: FRET or BRET; acceptor-selective photobleaching FRET between CFP- and YFP-tagged copies in living HEK293 cells; linearity of donor against acceptor for stoichiometry; hyperbolic fit of FRET against YFP intensity gives FRETmax and KD in arbitrary units. The note with it: remark: other sources report otherwise.
Assay [6] concerns the target CFP-dysferlin / YFP-dysferlin (full-length human dysferlin) expressed in mouse FDB muscle fibers (human) (UniProt O75923). The assay is described as follows: FRET or BRET; acceptor-selective photobleaching FRET between CFP-dysferlin and YFP-dysferlin in living FDB muscle fibers isolated from electroporated dysferlin-deficient mice. The following applies: remark: other sources report otherwise.

The target in assay [7] is Endogenous dysferlin from rabbit skeletal muscle (rabbit (endogenous in skeletal muscle)). The assay is described as follows: cross-linking; rabbit skeletal muscle microsomes with or without 100 µM o-PDM on ice for 30 min; SDS-PAGE and western blot. (In general: A western blot detects proteins with antibodies after separation by electrophoresis.)
Assay [8] has as its target His6-tagged dysferlin (human) (UniProt O75923). The assay is described as follows: SEC; Superose 6 HR 10/30 FPLC; mobile phase 1% CHAPS, 150 mM NaCl, 50 mM Tris pH 7.5, 0.4 ml/min; fractions blotted with Hamlet antibody; monomer to dimer. The following applies: remark: other sources report otherwise.

As a reminder, the stoichiometry N is a count of units in the complex or per binding partner.

With “CFP-dysferlin / YFP-dysferlin (full-length human dysferlin) expressed in HEK293 cells, O75923 1-2080”, the stoichiometry N in assay [1], in assay [2] and in assay [5] was 2 each time. Further, the FRET efficiency in assay [3] was determined as 20.6%. Moreover, the percent of molecules diffusing as the slower (dimer) species in assay [4] was found to be 17%. In assay [5], this substance returned an FRETmax of 26.8%.
On to “CFP-dysferlin / YFP-dysferlin (full-length human dysferlin) expressed in mouse FDB muscle fibers, O75923 1-2080”, for which, in assay [6], the FRETmax came out at 33.3% and the stoichiometry N is 2.
Substance “Endogenous dysferlin from rabbit skeletal muscle (natural protein)” registered a stoichiometry N in assay [7] of 2.
Take His6-tagged dysferlin, O75923 1-2080: in assay [8], the stoichiometry N is 2.
